Test results reported in patent publication US20120237518A1.

Target: recombinant human Trop-2/Fc/His fusion protein (manufactured by R&D) (human) (UniProt P09758)
Test: SPR (Biacore T100), Trop-2/Fc/His captured by Tetra-His antibody on CM5 chip, antibody as analyte, Bivalent Analyte model, mean of duplicates

Chain of recombinant human Trop-2/Fc/His fusion protein (manufactured by R&D) (human) (P09758 27-274 limits assumed): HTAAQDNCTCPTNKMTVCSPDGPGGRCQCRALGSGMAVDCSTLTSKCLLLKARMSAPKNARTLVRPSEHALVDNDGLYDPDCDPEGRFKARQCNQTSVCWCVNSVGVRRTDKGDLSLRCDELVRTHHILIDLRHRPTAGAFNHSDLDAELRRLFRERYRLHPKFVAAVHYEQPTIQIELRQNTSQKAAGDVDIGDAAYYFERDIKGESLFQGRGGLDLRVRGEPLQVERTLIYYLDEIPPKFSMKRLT

Substance	Kd	koff	kon
77220 (manufactured by R&D), anti-Trop-2 mouse monoclonal antibody	1.1 nM	0.00061 s⁻¹	555000 M⁻¹ s⁻¹
MOv16 (manufactured by Alexis), anti-Trop-2 mouse monoclonal antibody	0.929 nM	0.000184 s⁻¹	183000 M⁻¹ s⁻¹
